Assay results from US20130143812A1, “ANTI-INFLAMMATORY DRUG” (SEKISUI MEDICAL CO., LTD., priority 2010, published 2013).

B1: activin B: Recombinant (R&D Systems, 659AB005); in Examples 3 and 7 expressed by inhibin βB recombinant adenovirus (protein, UniProt P09529 293-407, looked up)
Inhibin beta B chain: GLECDGRTNLCCRQQFFIDFRLIGWNDWIIAPTGYYGNYCEGSCPAYLAGVPGSASSFHTAVVNQYRMRGLNPGTVNSCCIPTKLSTMSMLYFDDEYNIVKRDVPNMIVEECGCA
modifications: Inhibin beta B chain homodimer
B2: activin A: Human Recombinant (R&D Systems, 338AC005); in Examples 3 and 7 expressed by inhibin βA recombinant adenovirus (protein, UniProt P08476 311-426, looked up)
Inhibin beta A chain: GLECDGKVNICCKKQFFVSFKDIGWNDWIIAPSGYHANYCEGECPSHIAGTSGSSLSFHSTVINHYRMRGHSPFANLKSCCVPTKLRPMSMLYYDDGQNIIKKDIQNMIVEECGCS
modifications: Inhibin beta A chain homodimer

How the values were obtained:
[1] = system: high-fat diet-fed B6 mice; experiment: Glucose tolerance test (GTT) in high-fat diet-fed B6 mice given recombinant adenovirus; type: in vivo; details: activin expressed by recombinant adenovirus, glucose 1.0 mg/g-BW into abdominal cavity
Experimental: Adenovirus was produced in the same way as the production of recombinant adenovirus in Example 3.
After five-week-old male B6 mice were adapted with normal diet for one week, high-fat diet was fed for twelve weeks. The recombinant adenovirus (5.0×10^11 pfu/mL) was lysed in 150 μL of PBS and administered to mice in the 18th week from the tail vein once a week for two weeks. A glucose tolerance test (GTT) was performed on seventh day after the second administration.
The GTT was performed as follows. Into the abdominal cavities of mice fasted for 16 hours from the previous day of the test, 1.0 mg/g-BW of glucose (diluted by physiological saline) was administered. Serum was separated from collected whole blood and glucose concentration was measured by Glucose-Test Wako (manufactured by Wako Pure Chemical Industries).

RAW264.7 cells [2] = experiment: Expression of M2 and M1 macrophage markers in RAW264.7 cells cultured with activin A or activin B (TaqMan PCR); type: cell-based; details: 10 or 30 ng/mL added individually, 8 hours; for expression of arginase-1 (M2 macrophage marker): mRNA relative to cyclophilin A
Experimental: Each of activin A (10 ng/mL or 30 ng/mL) and activin B (10 ng/mL or 30 ng/mL) was individually added to RAW264.7 cells. Human Recombinant (R&D Systems, 338AC005) and Recombinant (R&D Systems, 659AB005) were used for activin A and activin B, respectively. After eight hours, RNeasy Mini Kit (250) (Qiagen, Cat. Number 74106) was used for recovering the cells to extract RNA.
The RNA extracted at step (1) was used for performing a reverse transcription reaction in accordance with the protocol of High Capacity cDNA Reverse Transcription Kit with RNase Inhibitor (ABI) to perform TagMan PCR. Arginase-1 was selected as an M2 macrophage marker and IL-6 and MCP-1 were selected as M1 macrophage markers to create respective TaqMan probes. Each of mRNA expression levels is represented by a multiple when an expression level of cyclophilin A mRNA in the same sample is defined as one (hereinafter, the same applies to the examples using TaqMan PCR unless otherwise stated).

RAW264.7 cells [3] = experiment: Macrophage marker expression in RAW264.7 cells with activin A, activin B or SB431542 and palmitic acid; type: cell-based; details: 8 hours; for expression level of arginase-1: activin 10 ng/mL present, palmitic acid 200 μM added, compared to control; for expression level of MCP-1, effect of activin addition / expression of IL-6, effect of activin addition: activin 10 ng/mL, palmitic acid 200 μM
Experimental: (1) Induction of Macrophages by Activin Species Activin A (10 ng/mL), activin B (10 ng/mL), and SB431542 (0.1 to 1 μM) were added to RAW264.7 cells in combination as depicted in FIG. 4. Human Recombinant (R&D Systems, 338AC005) and Recombinant (R&D Systems, 659AB005) were used for activin A and activin B, respectively. After 30 minutes, palmitic acid (a proinflammatory substance) was added to the final concentration of 200 μM and, after eight hours, RNeasy Mini Kit (250) (Qiagen, Cat. Number 74106) was used for recovering the cells to extract RNA. The RNA extracted at step (1) was used for performing a reverse transcription reaction in accordance with the protocol of High Capacity cDNA Reverse Transcription Kit with RNase Inhibitor (ABI) to perform TaqMan PCR. Arginase-1 was selected as an M2 macrophage marker and IL-6 and MCP-1 were selected as M1 macrophage markers to create respective TaqMan probes. Analysis was performed in the same way as the expression analysis of macrophage markers of Example 1.

db/db mice = experiment: Arginase-1 mRNA expression in visceral fat of db/db mice given recombinant adenovirus; type: in vivo; details: activin expressed by recombinant adenovirus via tail vein once a week for two weeks, compared to control
Text: (§1) Full-length mouse inhibin βA cDNA or full-length mouse inhibin βB cDNA was amplified by using pcDNA3.1/V5-HisA (Invitrogen) in accordance with the recommended method. The amplified product was subjected to HindIII and EcoRV treatments and used for production of recombinant adenovirus. The recombinant adenovirus of inhibin βA or inhibin βB was produced by using Takara Adenovirus Expression Vector Kit (Takara) in accordance with the recommended method. For negative control, β-galactosidase-gene-containing virus attached to the kit was used. The adenovirus was transfected to HEK293 cells by using CellPhect (registered trademark) Transfection Kit (GE Healthcare) with the calcium phosphate method.
After seven-week-old male db/db mice were adapted for one week, 5.0×10^11 pfu/mL of the recombinant adenovirus was lysed in 150 μL of PBS and administered from the tail vein once a week for two weeks. Visceral fat was collected on seventh day after the second administration for performing a reverse transcription reaction in accordance with the protocol of High Capacity cDNA Reverse Transcription Kit with RNase Inhibitor (ABI) and the expression analysis of arginase-1 was performed with TaqMan PCR.

[4] = system: high-fat diet-fed B6 mice; experiment: Arginase-1 mRNA expression in visceral fat of high-fat diet-fed B6 mice given recombinant adenovirus; type: in vivo; details: twelve-week high-fat diet B6 mice, activin expressed by recombinant adenovirus via tail vein once a week for two weeks
Text: as §1
After five-week-old male B6 mice were adapted with normal diet for one week, high-fat diet was fed for twelve weeks. The recombinant adenovirus (5.0×10^11 pfu/mL) was lysed in 150 μL of PBS and administered to mice in the 18th week from the tail vein once a week for two weeks. Visceral fat was collected on seventh day after the second administration for performing reverse transcription in accordance with the protocol of High Capacity cDNA Reverse Transcription Kit with RNase Inhibitor (ABI) and the expression analysis of arginase-1 was performed with TaqMan PCR.

RAW264.7 cells [5] = experiment: Arginase-1 expression in RAW264.7 cells with activin A, Fstl3, anti-Fstl3 antibody or mouse IgG and palmitic acid; type: cell-based; details: activin A 10 ng/mL, under induction of inflammation by palmitic acid 200 μM
Experimental: Fstl3 (30 ng/mL), an anti-Fstl3 antibody or mouse IgG (0.3 to 10 μg/mL), and activin A (10 ng/mL) were added to RAW264.7 cells in combination as depicted in FIG. 6. Human Recombinant (R&D Systems, 338AC005), Recombinant (R&D Systems, 659AB005), and Follistatin-like 3 Recombinant (R&D Systems, 1255F3025) were used for activin A, activin B, and Fstl3, respectively. After 30 minutes, palmitic acid (a proinflammatory substance) was added to the final concentration of 200 μM and, after eight hours, RNeasy Mini Kit (250) (Qiagen, Cat. Number 74106) was used for recovering the cells to extract RNA.
The RNA extracted at step (1) was used for performing a reverse transcription reaction in accordance with the protocol of High Capacity cDNA Reverse Transcription Kit with RNase Inhibitor (ABI) to perform TaqMan PCR. Arginase-1 was selected as an M2 macrophage marker to create TaqMan probes.

RAW264.7 cells [6] = experiment: Expression of M2 macrophage markers in RAW264.7 cells cultured with activin A and SB431542; type: cell-based; details: activin A 10 or 30 ng/mL, 24 hours
Experimental: Activin A (10 ng/mL or 30 ng/mL) and SB431542 (0.1 to 1 μM, Santa Cruz Biotechnology, Inc., sc-204265) were added to RAW264.7 cells in combination as depicted in FIG. 2. Human Recombinant (R&D Systems, 338AC005) was used for activin A. After 24 hours, RNeasy Mini Kit (250) (Qiagen, Cat. Number 74106) was used for recovering the cells to extract RNA. The RNA extracted at step (1) was used for performing a reverse transcription reaction in accordance with the protocol of High Capacity cDNA Reverse Transcription Kit with RNase Inhibitor (ABI) to perform TaqMan PCR. Arginase-1, Mrc2 (mannose receptor 2), and IL-10 were selected as M2 macrophage markers to create respective TaqMan probes.

| Molecule | glucose metabolism in glucose tolerance test (GTT) [1] | expression level of IL-6 (M1 macrophage marker) (RAW264.7 cells [2]) | expression level of MCP-1 (M1 macrophage marker) (RAW264.7 cells [2]) | expression of arginase-1 (M2 macrophage marker) (RAW264.7 cells [2]) | expression level of arginase-1 (RAW264.7 cells [3]) | expression level of MCP-1, effect of activin addition (RAW264.7 cells [3]) | expression of IL-6, effect of activin addition (RAW264.7 cells [3]) | expression of arginase-1 in visceral fat (db/db mice) | expression level of arginase-1 in visceral fat [4] | expression level of arginase-1 (RAW264.7 cells [5]) | expression of IL-10 (RAW264.7 cells [6]) | expression of Mrc2 (RAW264.7 cells [6]) | expression of arginase-1 (RAW264.7 cells [6]) |
| --- | --- | --- | --- | --- | --- | --- | --- | --- | --- | --- | --- | --- | --- |
| B1 | improved glucose metabolism | not changed | not changed | remarkably increased | remarkably increased | not changed | slightly reduced | remarkably increased | similarly increased | – | – | – | – |
| B2 | improved glucose metabolism | not changed | not changed | remarkably increased | remarkably increased | not changed | slightly reduced | no difference from the control | slightly increased | increased | remarkably increased | remarkably increased | remarkably increased |
